Data published in patent US20260232830A1 (JIANGSU HENGRUI PHARMACEUTICALS, published 2026).

Key:
[1] = target: T1, human MUC1-C on stably transfected cells (human, UniProt P15941 961-1255, limits assumed); assay: FACS, HCC827-human-MUC1-C, Test 2
T1 construct: domain: MUC1-C; the cell line of each value is named under assay; also called HCC827-human-MUC1-C cells; CHOK1-human-MUC1-C cells

[2] = target: T1, human MUC1-C on stably transfected cells; assay: FACS, HCC827-human-MUC1-C, Test 1
[3] = target: T2, human MUC1 as expressed on tumour cell lines (T47D, HCC827, HPAC) (human, UniProt P15941 24-1255); assay: FACS, HPAC
T2 construct: whole, on cells; the cell line is named under assay; also called T47D cells; HCC827 cells

[4] = target: T2, human MUC1 as expressed on tumour cell …; assay: FACS, HCC827
[5] = target: T2, human MUC1 as expressed on tumour cell …; assay: FACS, T47D
[6] = target: T1, human MUC1-C on stably transfected cells; assay: FACS, HCC827-human-MUC1-C, Test 2; remark: listed apart in the source
[7] = target: T1, human MUC1-C on stably transfected cells; assay: FACS, HCC827-human-MUC1-C
[8] = target: T1, human MUC1-C on stably transfected cells; assay: FACS, CHOK1-human-MUC1-C
[9] = target: T1, human MUC1-C on stably transfected cells; assay: FACS, CHOK1-human-MUC1-C; remark: listed apart in the source

B1: M6-H2L2 (antibody, human IgG1, kappa, V domains shown)
VH: EVQLVQSGAEVKKPGASVKVSCKASGYRFIPYWIEWVRQAPGQGLEWMGEILPGTGRTNYNEKFKGRVTFTADTSTNTVYMELSSLRSEDTAVYYCARYGDDTSGGYYAVDYWGQGTTVTVSS
VL: EIVLTQSPATLSLSPGERATLSCRASESVNILGTNLIHWYQQKPGQAPKLLIYHASNLETGIPARFSGSGSRTDFTLTISSLEPEDFAVYYCLQSRKIPWTFGGGTKVEIKR
notes: humanized, human IgG1
For B1, the Emax [1] was 92700.

B2: M6-H7L3 (antibody, human IgG1, kappa, V domains shown)
VH: EVQLVQSGAEVKKPGASVKVSCKASGYRFIPYWIEWVRERPGHGLEWMGEILPGTGRTNYNEKFKGRVTFTADTSTNTVYMELSSLTNEDTAVYYCARYGEDTSGGYYAVDYWGQGTTVTVSS
VL: DIVMTQSPATLSLSPGERATLSCRASESVNILGTNLIHWYQQKPGQAPKLLIYHASNLETGIPARFSGSGSRTDFTLTISSLEPEDVAVYYCLQSRKIPWTFGGGTKVEIKR
notes: humanized, human IgG1
B2 showed an Emax [1] of 48900.

B3: M6-H5L3 (antibody, human IgG1, kappa, V domains shown)
VH: EVQLVQSGAEVKKPGASVKVSCKASGYRFIPYWIEWVRERPGHGLEWMGEILPGTGRTNYNEKFKGRVTFTADTSTNTVYMELSSLTSEDTAVYYCARYGEDTSGGYYAVDYWGQGTTVTVSS
VL: DIVMTQSPATLSLSPGERATLSCRASESVNILGTNLIHWYQQKPGQAPKLLIYHASNLETGIPARFSGSGSRTDFTLTISSLEPEDVAVYYCLQSRKIPWTFGGGTKVEIKR
notes: humanized, human IgG1
In the case of B3, the Emax [1] is reported as 73000.

B4: M6-H7L2 (antibody, human IgG1, kappa, V domains shown)
VH: EVQLVQSGAEVKKPGASVKVSCKASGYRFIPYWIEWVRERPGHGLEWMGEILPGTGRTNYNEKFKGRVTFTADTSTNTVYMELSSLTNEDTAVYYCARYGEDTSGGYYAVDYWGQGTTVTVSS
VL: EIVLTQSPATLSLSPGERATLSCRASESVNILGTNLIHWYQQKPGQAPKLLIYHASNLETGIPARFSGSGSRTDFTLTISSLEPEDFAVYYCLQSRKIPWTFGGGTKVEIKR
notes: humanized, human IgG1
B4 showed an Emax [1] of 78400.

B5: M4-H1L2 (antibody, human IgG1, kappa)
heavy: not shown
light: DIVMTQSPSSLSASVGDRVTITCSASSSVFNMNWYQQKPGKSPKLWIYDISKLASGVPSRFSGSGSGTDFTLTISSLQPEDFATYYCQQRSFYPPTFGGGTKVEIKRTVAAPSVFIFPPSDEQLKSGTASVVCLLNNFYPREAKVQWKVDNALQSGNSQESVTEQDSKDSTYSLSSTLTLSKADYEKHKVYACEVTHQGLSSPVTKSFNRGEC
notes: humanized, human IgG1
B5 gave an Emax [2] of 74400.

B6: M4-H1L1 (antibody, human IgG1, kappa)
heavy: not shown
light: DIQMTQSPSSLSASVGDRVTITCSASSSVFNMNWYQQKPGKSPKLWIYDISKLASGVPSRFSGSGSGTDFTLTISSLQPEDFATYYCQQRSFYPPTFGGGTKVEIKRTVAAPSVFIFPPSDEQLKSGTASVVCLLNNFYPREAKVQWKVDNALQSGNSQESVTEQDSKDSTYSLSSTLTLSKADYEKHKVYACEVTHQGLSSPVTKSFNRGEC
notes: humanized, human IgG1
Work on B6 yielded an Emax [3] of 22400, an Emax [4] of 3630 and an Emax [5] of 5250. It also gave an EC50 [6] of 5 nM and an Emax [6] of 42300.

B7: M4H1L1-9-A (antibody, human IgG1, kappa)
heavy: not shown
light: DIQMTQSPSSLSASVGDRVTITCSASSSVFNMNWYQQKPGKSPKLWIYDISKLASGVPSRFSGSGSGTDFTLTISSLQPEDFATYYCQQRSFYPPTFGGGTKVEIKRTVAAPSVFIFPPSDEQLKSGTASVVCLLNNFYPREAKVQWKVDNALQSGNSQESVTEQDSKDSTYSLSSTLTLSKADYEKHKVYACEVTHQGLSSPVTKSFNRGEC
modifications: compound 9-A coupled to reduced cysteines of the antibody (chains and sites not stated), average n=6.6
notes: also called MUC1 monoclonal antibody ADC
B7 showed an Emax [3] of 29200 and an Emax [4] of 3690.

B8: ChiF4-1 (antibody, human IgG1, kappa, V domains shown)
VH: QIQLQQSGPELVKPGASVKISCKASGYTFTDNYINWVKQRPGQGLEYIGWIYPGSGNNKFNEKFKGKATLTVDTSSRTAFMQLSSLTFEDSAVYFCARDYPFPSYHYGMDYWGQGTSVTVSS
VL: QILLTQSPAIMSASPGERVTITCSASSSVSYIHWFQQKPGTSPKLWIYSTSNLASGVPPRFSGSGSGTSFSLTVSRMEAEDAATYYCQQRSSYPPTFGGGTKLEIKR
notes: murine variable regions on human IgG1 constant regions; also called chimeric antibody of F4-1
B8 showed an Emax [7] of 21500.

B9: F4-1-H1L2 (antibody, human IgG1, kappa, V domains shown)
VH: EVQLVQSGAEVKKPGASVKVSCKASGYTFTDNYINWVRQAPGQRLEYMGWIYPGSGNNKFNEKFKGRVTITVDTSASTAYMELSSLRSEDTAVYYCARDYPFPSYHYGMDYWGQGTTVTVSS
VL: DIQLTQSPSSLSASVGDRVTITCSASSSVSYIHWFQQKPGKAPKLWIYSTSNLASGVPSRFSGSGSGTDFTLTVSSLQPEDFATYYCQQRSSYPPTFGGGTKVEIKR
notes: humanized, human IgG1
Work on B9 yielded an Emax [8] of 102000.

B10: F4-1-H2L3 (antibody, human IgG1, kappa, V domains shown)
VH: EVQLVQSGAEVKKPGASVKVSCKASGYTFTDNYINWVRQAPGQRLEYIGWIYPGSGNNKFNEKFKGRVTLTVDTSARTAYMELSSLRSEDTAVYYCARDYPFPSYHYGMDYWGQGTTVTVSS
VL: DIQLTQSPSSLSASVGDRVTITCSASSSVSYIHWFQQKPGTSPKLWIYSTSNLASGVPSRFSGSGSGTDFTLTVSSLQPEDFATYYCQQRSSYPPTFGGGTKVEIKR
notes: humanized, human IgG1
Binder B10 has an Emax [8] of 122000.

B11: ChiF4-18 (antibody, human IgG1, kappa, V domains shown)
VH: EVQLQQSGAELVRPGSSVKMSCKTSGYTFTSYGINWVKQRPGQGLEWIGYIYLGSDYTEYNEKFKGKATLTSDTTSSTAYMQLSSLTSEDSAIYFCARSAGSLFAYWGQGTLVTVSA
VL: DIQLTQSPSSLSASLGERVSLTCRASQDIGITLNWLQQEPDGTIKRLIYATSSLDSGVPKRFSGSRSGSDYSLTISSLESEDFVDYYCLQYASSPYTFGGGTKLEIKR
notes: murine variable regions on human IgG1 constant regions; also called chimeric antibody of F4-18
With B11 the Emax [7] was 20900.

B12: F4-18-H2L3 (antibody, human IgG1, kappa, V domains shown)
VH: EVQLVQSGAEVKKPGASVKVSCKASGYTFTSYGINWVRQRPGQGLEWIGYIYLGSDYTEYNEKFKGRVTLTSDTSASTAYMELSSLRSEDTAVYYCARSAGSLFAYWGQGTLVTVSS
VL: DIQLTQSPSSLSASVGDRVTITCRASQDIGITLNWLQQKPGKAIKRLIYATSSLDSGVPSRFSGSRSGSDYTLTISSLQPEDFATYYCLQYASSPYTFGGGTKVEIKR
notes: humanized, human IgG1
Binder B12 has an Emax [9] of 80400.

B13: F4-18-H3L4 (antibody, human IgG1, kappa, V domains shown)
VH: EVQLVQSGAEVVKPGASVKMSCKTSGYTFTSYGINWVRQRPGQGLEWIGYIYLGSDYTEYNEKFKGRVTLTSDTSASTAYMELSSLRSEDTAVYYCARSAGSLFAYWGQGTLVTVSS
VL: DIQLTQSPSSLSASVGDRVTITCRASQDIGITLNWLQQEPGGAIKRLIYATSSLDSGVPKRFSGSRSGSDYTLTISSLQPEDFATYYCLQYASSPYTFGGGTKVEIKR
notes: humanized, human IgG1
Work on B13 yielded an Emax [9] of 73400.

B14: ChiM4 (antibody, human IgG1, kappa, V domains shown)
VH: QVQLQQSGAELARPGASVKLSCKASGYSFTTYGVPWVKQRTGQGLEWIGDIYPRSGNTYYNEKFKGKATLTADKSSDTVFMELRSLSSEDSAVYFCAREDYDNYPYALDYWGQGTSVTVSS
VL: EIVLTQSPAIIAASPGEKVTITCSASSSVFNMNWYQQKPGSSPKIWIYDISKLASGVPGRFSGSGSGTSFSLTINSMEAEDVGTYYCQQRSFYPPTFGGGTKVEIKR
notes: murine variable regions on human IgG1 constant regions; also called chimeric antibody of M4
B14 was tested, and the Emax [7] was 13200.
